One data set addresses T1, AtMKK5-KD (Arabidopsis thaliana, UniProt Q8RXG3).
T1 construct: gene MKK5; kinase domain, residues 62-335, N-terminal His6-tag, pET28b, E. coli BL21(DE3); phosphorylated at Ser66, Thr83, Thr108, Thr215, Ser221
T1 sequence (Q8RXG3 62-335): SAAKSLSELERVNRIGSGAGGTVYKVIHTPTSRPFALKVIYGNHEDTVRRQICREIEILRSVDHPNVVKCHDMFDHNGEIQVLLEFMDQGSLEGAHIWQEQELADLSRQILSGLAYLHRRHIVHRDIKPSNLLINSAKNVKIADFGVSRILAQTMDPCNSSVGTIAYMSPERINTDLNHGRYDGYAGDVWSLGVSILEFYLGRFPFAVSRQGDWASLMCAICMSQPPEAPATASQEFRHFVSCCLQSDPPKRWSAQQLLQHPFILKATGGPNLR
The data set is described as follows: PK/LDH-coupled NADH oxidation at […] nm (ATPase). Format: biochemical. Conditions: 1 mM ATP, 20 nM phosphorylated kinase domain; 10 mM MgCl2, pH 7.0, 25 °C.

Data set [1] deals with AtMPK6(K92M) (Arabidopsis thaliana) (UniProt Q39026).
Substrate in the data set “purified protein”: Nc1ncnc2c1ncn2[C@@H]1O[C@H](COP(=O)(O)OP(=O)(O)OP(=O)(O)O)[C@@H](O)[C@H]1O
The data set is described as follows: purified protein. Format: biochemical, Arabidopsis thaliana. To be noted: no protein substrate, 10 mM MgCl2, 50 mM MOPS pH 7.0, 100 mM NaCl, 25 °C, phosphorylated enzyme 20 nM.

This is an account of results in PMC9909325, “Crystal structure of the phosphorylated Arabidopsis MKK5 reveals activation mechanism of MAPK kinases” (Acta Biochimica et Biophysica Sinica, 2022).

Sequence of AtMPK6(K92M) (Arabidopsis thaliana) (Q39026 whole entry K92M): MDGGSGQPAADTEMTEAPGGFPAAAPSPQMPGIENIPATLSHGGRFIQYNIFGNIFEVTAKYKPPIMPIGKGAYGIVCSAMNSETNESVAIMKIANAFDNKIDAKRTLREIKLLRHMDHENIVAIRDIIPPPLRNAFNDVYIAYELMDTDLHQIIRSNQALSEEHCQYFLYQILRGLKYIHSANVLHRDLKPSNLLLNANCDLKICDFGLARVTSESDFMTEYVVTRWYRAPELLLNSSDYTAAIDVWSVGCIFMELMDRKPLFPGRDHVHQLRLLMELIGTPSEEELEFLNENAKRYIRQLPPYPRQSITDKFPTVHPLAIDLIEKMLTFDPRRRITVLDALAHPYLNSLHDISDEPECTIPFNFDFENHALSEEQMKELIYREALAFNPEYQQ

With `Nc1ncnc2c1ncn2[C@@H]1O[C@H](COP(=O)(O)OP(=O)(O)OP(=O)(O)O)[C@@H](O)[C@H]1O` [ATP], the “PK/LDH-coupled NADH oxidation at 340 nm (ATPase)” value at AtMKK5-KD is on record as “examined their effects on the catalytic function of AtMKK5-KD”.

B1: AtMKK5 RRKR4A (full length; Arg17, Arg19, Lys20 and Arg21 all replaced by Ala) (enzyme)
chain: MKPIQSPSGVASPMKNALAAAPDLSLPLPHRDVALAVPLPLPPPSSSSSAPASSSAISTNISAAKSLSELERVNRIGSGAGGTVYKVIHTPTSRPFALKVIYGNHEDTVRRQICREIEILRSVDHPNVVKCHDMFDHNGEIQVLLEFMDQGSLEGAHIWQEQELADLSRQILSGLAYLHRRHIVHRDIKPSNLLINSAKNVKIADFGVSRILAQTMDPCNSSVGTIAYMSPERINTDLNHGRYDGYAGDVWSLGVSILEFYLGRFPFAVSRQGDWASLMCAICMSQPPEAPATASQEFRHFVSCCLQSDPPKRWSAQQLLQHPFILKATGGPNLRQMLPPPRPLPSAS
modifications: phosphorylated at Ser/Thr residues (signals similar to the wild type; sites not stated)
Regarding B1, the decrease of AtMPK6(K92M) phosphorylation activity against wild-type AtMKK5, coupled spectrophotometric assay (20 nM AtMKK5, 1 mM ATP, 1 μM AtMPK6(K92M)) (fold decrease) in data set [1] was 25.

B2: AtMKK5 L28A (full length) (enzyme)
chain: MKPIQSPSGVASPMKNRLRKRPDLSLPAPHRDVALAVPLPLPPPSSSSSAPASSSAISTNISAAKSLSELERVNRIGSGAGGTVYKVIHTPTSRPFALKVIYGNHEDTVRRQICREIEILRSVDHPNVVKCHDMFDHNGEIQVLLEFMDQGSLEGAHIWQEQELADLSRQILSGLAYLHRRHIVHRDIKPSNLLINSAKNVKIADFGVSRILAQTMDPCNSSVGTIAYMSPERINTDLNHGRYDGYAGDVWSLGVSILEFYLGRFPFAVSRQGDWASLMCAICMSQPPEAPATASQEFRHFVSCCLQSDPPKRWSAQQLLQHPFILKATGGPNLRQMLPPPRPLPSAS
modifications: phosphorylated at Ser/Thr residues (signals similar to the wild type; sites not stated)
For B2, the decrease of AtMPK6(K92M) phosphorylation activity against wild-type AtMKK5, coupled spectrophotometric assay (20 nM AtMKK5, 1 mM ATP, 1 μM AtMPK6(K92M)) (fold decrease) in data set [1] is 10.

B3: AtMKK5 LLL3A (full length; Leu24, Leu26 and Leu28 all replaced by Ala) (enzyme)
chain: MKPIQSPSGVASPMKNRLRKRPDASAPAPHRDVALAVPLPLPPPSSSSSAPASSSAISTNISAAKSLSELERVNRIGSGAGGTVYKVIHTPTSRPFALKVIYGNHEDTVRRQICREIEILRSVDHPNVVKCHDMFDHNGEIQVLLEFMDQGSLEGAHIWQEQELADLSRQILSGLAYLHRRHIVHRDIKPSNLLINSAKNVKIADFGVSRILAQTMDPCNSSVGTIAYMSPERINTDLNHGRYDGYAGDVWSLGVSILEFYLGRFPFAVSRQGDWASLMCAICMSQPPEAPATASQEFRHFVSCCLQSDPPKRWSAQQLLQHPFILKATGGPNLRQMLPPPRPLPSAS
modifications: phosphorylated at Ser/Thr residues (signals similar to the wild type; sites not stated)
The molecule B3 registered a drop of the initial velocity of AtMPK6(K92M) phosphorylation against wild-type AtMKK5, coupled spectrophotometric assay (20 nM AtMKK5, 1 mM ATP, 1 μM AtMPK6(K92M)) (fold decrease) in data set [1] of 90.

B4: AtMKK5 (full-length, phosphorylated; p-AtMKK5) (Arabidopsis thaliana) (protein)
chain: MKPIQSPSGVASPMKNRLRKRPDLSLPLPHRDVALAVPLPLPPPSSSSSAPASSSAISTNISAAKSLSELERVNRIGSGAGGTVYKVIHTPTSRPFALKVIYGNHEDTVRRQICREIEILRSVDHPNVVKCHDMFDHNGEIQVLLEFMDQGSLEGAHIWQEQELADLSRQILSGLAYLHRRHIVHRDIKPSNLLINSAKNVKIADFGVSRILAQTMDPCNSSVGTIAYMSPERINTDLNHGRYDGYAGDVWSLGVSILEFYLGRFPFAVSRQGDWASLMCAICMSQPPEAPATASQEFRHFVSCCLQSDPPKRWSAQQLLQHPFILKATGGPNLRQMLPPPRPLPSAS
notes: full-length (348 residues), N-terminal His6-tag, pET28b, E. coli BL21(DE3); phosphorylated at Ser/Thr as purified
Usually Km stands for the substrate concentration at which the rate is half of its maximum. The kcat is the number of substrate molecules converted per active site and unit of time at saturation. B4: in the data set “purified protein”, the Km came to 96.2 ± 3.5 µM and the kcat is 1.96 ± 0.02 s⁻¹.

B5: AtMKK5 L26A (full length) (enzyme)
chain: MKPIQSPSGVASPMKNRLRKRPDLSAPLPHRDVALAVPLPLPPPSSSSSAPASSSAISTNISAAKSLSELERVNRIGSGAGGTVYKVIHTPTSRPFALKVIYGNHEDTVRRQICREIEILRSVDHPNVVKCHDMFDHNGEIQVLLEFMDQGSLEGAHIWQEQELADLSRQILSGLAYLHRRHIVHRDIKPSNLLINSAKNVKIADFGVSRILAQTMDPCNSSVGTIAYMSPERINTDLNHGRYDGYAGDVWSLGVSILEFYLGRFPFAVSRQGDWASLMCAICMSQPPEAPATASQEFRHFVSCCLQSDPPKRWSAQQLLQHPFILKATGGPNLRQMLPPPRPLPSAS
modifications: phosphorylated at Ser/Thr residues (signals similar to the wild type; sites not stated)
For the molecule B5, the decrease of AtMPK6(K92M) phosphorylation activity against wild-type AtMKK5, coupled spectrophotometric assay (20 nM AtMKK5, 1 mM ATP, 1 μM AtMPK6(K92M)) (fold decrease) in data set [1] turned out to be 10.

B6: AtMKK5 R21A (full length) (enzyme)
chain: MKPIQSPSGVASPMKNRLRKAPDLSLPLPHRDVALAVPLPLPPPSSSSSAPASSSAISTNISAAKSLSELERVNRIGSGAGGTVYKVIHTPTSRPFALKVIYGNHEDTVRRQICREIEILRSVDHPNVVKCHDMFDHNGEIQVLLEFMDQGSLEGAHIWQEQELADLSRQILSGLAYLHRRHIVHRDIKPSNLLINSAKNVKIADFGVSRILAQTMDPCNSSVGTIAYMSPERINTDLNHGRYDGYAGDVWSLGVSILEFYLGRFPFAVSRQGDWASLMCAICMSQPPEAPATASQEFRHFVSCCLQSDPPKRWSAQQLLQHPFILKATGGPNLRQMLPPPRPLPSAS
modifications: phosphorylated at Ser/Thr residues (signals similar to the wild type; sites not stated)
For the molecule B6, the decrease of AtMPK6(K92M) phosphorylation activity against wild-type AtMKK5, coupled spectrophotometric assay (20 nM AtMKK5, 1 mM ATP, 1 μM AtMPK6(K92M)) (fold decrease) in data set [1] came out at 3.

B7: AtMKK5 K20A (full length) (enzyme)
chain: MKPIQSPSGVASPMKNRLRARPDLSLPLPHRDVALAVPLPLPPPSSSSSAPASSSAISTNISAAKSLSELERVNRIGSGAGGTVYKVIHTPTSRPFALKVIYGNHEDTVRRQICREIEILRSVDHPNVVKCHDMFDHNGEIQVLLEFMDQGSLEGAHIWQEQELADLSRQILSGLAYLHRRHIVHRDIKPSNLLINSAKNVKIADFGVSRILAQTMDPCNSSVGTIAYMSPERINTDLNHGRYDGYAGDVWSLGVSILEFYLGRFPFAVSRQGDWASLMCAICMSQPPEAPATASQEFRHFVSCCLQSDPPKRWSAQQLLQHPFILKATGGPNLRQMLPPPRPLPSAS
modifications: phosphorylated at Ser/Thr residues (signals similar to the wild type; sites not stated)
In the case of B7, in data set [1], the decrease of AtMPK6(K92M) phosphorylation activity against wild-type AtMKK5, coupled spectrophotometric assay (20 nM AtMKK5, 1 mM ATP, 1 μM AtMPK6(K92M)) (fold decrease) came to 3.

B8: AtMKK5 L24A (full length) (enzyme)
chain: MKPIQSPSGVASPMKNRLRKRPDASLPLPHRDVALAVPLPLPPPSSSSSAPASSSAISTNISAAKSLSELERVNRIGSGAGGTVYKVIHTPTSRPFALKVIYGNHEDTVRRQICREIEILRSVDHPNVVKCHDMFDHNGEIQVLLEFMDQGSLEGAHIWQEQELADLSRQILSGLAYLHRRHIVHRDIKPSNLLINSAKNVKIADFGVSRILAQTMDPCNSSVGTIAYMSPERINTDLNHGRYDGYAGDVWSLGVSILEFYLGRFPFAVSRQGDWASLMCAICMSQPPEAPATASQEFRHFVSCCLQSDPPKRWSAQQLLQHPFILKATGGPNLRQMLPPPRPLPSAS
modifications: phosphorylated at Ser/Thr residues (signals similar to the wild type; sites not stated)
For the molecule B8, the decrease of AtMPK6(K92M) phosphorylation activity against wild-type AtMKK5, coupled spectrophotometric assay (20 nM AtMKK5, 1 mM ATP, 1 μM AtMPK6(K92M)) (fold decrease) in data set [1] was found to be 10.

B9: AtMKK5 R19A (full length) (enzyme)
chain: MKPIQSPSGVASPMKNRLAKRPDLSLPLPHRDVALAVPLPLPPPSSSSSAPASSSAISTNISAAKSLSELERVNRIGSGAGGTVYKVIHTPTSRPFALKVIYGNHEDTVRRQICREIEILRSVDHPNVVKCHDMFDHNGEIQVLLEFMDQGSLEGAHIWQEQELADLSRQILSGLAYLHRRHIVHRDIKPSNLLINSAKNVKIADFGVSRILAQTMDPCNSSVGTIAYMSPERINTDLNHGRYDGYAGDVWSLGVSILEFYLGRFPFAVSRQGDWASLMCAICMSQPPEAPATASQEFRHFVSCCLQSDPPKRWSAQQLLQHPFILKATGGPNLRQMLPPPRPLPSAS
modifications: phosphorylated at Ser/Thr residues (signals similar to the wild type; sites not stated)
In data set [1], B9 showed a decrease of AtMPK6(K92M) phosphorylation activity against wild-type AtMKK5, coupled spectrophotometric assay (20 nM AtMKK5, 1 mM ATP, 1 μM AtMPK6(K92M)) (fold decrease) of 3.
